Results reported in paper PMC4734655.

Target: recombinant human IL-8 (interleukin-8) (human)
Assay: SPR; Biacore; IL-8 immobilised on a CM5 chip by amine coupling (Fc2), BSA on the reference cell (Fc1); soluble recombinant Mtb proteins as analytes at 2.5, 5, 10 and 20 uM; 22 °C, PBS pH 7.4 with 0.005% P20; flow 5 ul/min; one-to-one model

recombinant M. tuberculosis rSahH (His-tagged, from pHis-sahH), sequence (P9WGV3 whole entry): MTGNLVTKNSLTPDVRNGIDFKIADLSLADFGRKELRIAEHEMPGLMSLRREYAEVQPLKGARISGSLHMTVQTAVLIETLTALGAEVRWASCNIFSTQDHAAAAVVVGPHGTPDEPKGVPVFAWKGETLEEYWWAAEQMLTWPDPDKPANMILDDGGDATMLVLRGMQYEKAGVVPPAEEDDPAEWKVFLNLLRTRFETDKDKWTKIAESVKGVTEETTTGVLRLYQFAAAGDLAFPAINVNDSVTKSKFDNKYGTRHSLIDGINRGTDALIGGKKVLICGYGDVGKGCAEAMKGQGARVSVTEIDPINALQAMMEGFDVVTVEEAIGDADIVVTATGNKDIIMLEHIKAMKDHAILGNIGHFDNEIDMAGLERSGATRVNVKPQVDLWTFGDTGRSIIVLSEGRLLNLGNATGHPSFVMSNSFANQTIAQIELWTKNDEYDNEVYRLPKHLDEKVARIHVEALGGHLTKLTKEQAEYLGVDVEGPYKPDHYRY

recombinant M. tuberculosis rSahH (His-tagged, from pHis-sahH) (from UniProt P9WGV3 1-495) (enzyme)
Kd: 0.714 nM
